According to article PMC12564524, “AlphaFold-Guided Semi-Rational Engineering of an (R)-Amine Transaminase for Green Synthesis of Chiral Amines” (Biomolecules, 2025):

Columns and labels:
CC(=O)CCc1ccccc1 = test system: T1, CC(=O)CCc1ccccc1; assay: HPLC quantification of (R)-1-methyl-3-phenylpropylamine, Michaelis-Menten fit; format: biochemical, Mycolicibacterium wolinskyi; conditions: pH 7.0, 40 °C, 30 min, 10 μg/mL enzyme, ketone 0-200 mM, standard assay has 20 mM (R)-2-aminoheptane, 2 mM PLP, 100 mM triethanolamine
T1 construct: N-terminal 6xHis tag, pET-15b, codon-optimised synthetic gene, E. coli BL21(DE3), Ni-NTA purified; about 48 kDa; PLP-dependent fold type IV
Description: (§1) HPLC quantification of (R)-1-methyl-3-phenylpropylamine, Michaelis-Menten fit on MwoAT

[1] = substrate: CC(=O)CCc1ccccc1; assay: as above; format: biochemical, Mycolicibacterium wolinskyi; conditions: pH 7.0, 40 °C, 30 min, 10 μg/mL enzyme, ketone 0-200 mM, standard assay has 20 mM (R)-2-aminoheptane, 2 mM PLP, 100 mM triethanolamine
Description: as §1

Molecule: MwoAT (Mycolicibacterium wolinskyi; L175A)
- Km (CC(=O)CCc1ccccc1): 54.25 ± 2.42 mM
- kcat (CC(=O)CCc1ccccc1): 5.677 ± 0.0542 s⁻¹
- kcat/Km (CC(=O)CCc1ccccc1): 105 ± 5.67 M⁻¹ s⁻¹

Molecule: MwoAT (Mycolicibacterium wolinskyi; L175G)
- Km (CC(=O)CCc1ccccc1): 42.87 ± 0.43 mM
- kcat (CC(=O)CCc1ccccc1): 5.32 ± 0.026 s⁻¹
- kcat/Km (CC(=O)CCc1ccccc1): 124 ± 2.5 M⁻¹ s⁻¹

B1: MwoAT (Mycolicibacterium wolinskyi) (protein)
chain: MQYSDYELDTTSPFAGGVAWIEGEYLPASEAKISIFDTGFGHSDLTYTVAHVWHGNIFRLGDHLDRLLDGARKLRLDPGMSKDELAEITKKCVSLSQLRESFVNLTVTRGYGKRKGEKDLSKLTHQVYIYAIPYLWAFPPSEQIFGTTAIVPRHVRRAGRNTVDPTIKNYQWGDLTAASFEAKDRGARTAILMDADNCVAEGPGFNVVIVKDGKLASPSRNALPGITRKTVFEIADAMGIEAELRDVTSHELYDADELMAVTTAGGVTPINSLDGEPIGDGAPGPLTVAIRDRFWALMDEPSALIEAIQY
notes: N-terminal 6xHis tag, pET-15b, codon-optimised synthetic gene, E. coli BL21(DE3), Ni-NTA purified; about 48 kDa; PLP-dependent fold type IV
- Km [1]: 68.03 ± 1.68 mM
- kcat [1]: 3.9358 ± 0.0035 s⁻¹
- kcat/Km [1]: 57.8 ± 1.5 M⁻¹ s⁻¹
